Target: CRM1 protein (chromosome region maintenance 1)
Assay: co-immunoprecipitation (IP FOXO1, WB CRM1), band quantification
Details: chicken granulosa cells, with 740-Y-P; n = 3; parent: est. 1.9; read off a plot

| response | Substance |
| --- | --- |
| 2 | chicken forkhead box O1 (FOXO1) wild-type (from UniProt A0A8V0XGP1) S248A |
| 2 | chicken forkhead box O1 (FOXO1) wild-type (from UniProt A0A8V0XGP1) S311A |

Reference: PMC12691273
